Assay results: patent US20260234247A1 (published 2026)
Numbering of substitutions follows the chain as printed.

Assays:
[1] = target: T1, human LILRB1 expressed on CHOK1 cells (CHOK1-hLILRB1) (human, UniProt Q8NHL6 24-650); assay: FACS binding to CHOK1-hLILRB1 cells
T1 construct: whole, on cells; also called CHOK1-LILRB1

[2] = target: T2, human LILRB2 expressed on CHOK1 cells (CHOK1-hLILRB2) (human, UniProt Q8N423 22-597); assay: FACS binding to CHOK1-hLILRB2 cells
T2 construct: whole, on cells; also called CHOK1-LILRB2
T2 sequence (Q8N423 22-597): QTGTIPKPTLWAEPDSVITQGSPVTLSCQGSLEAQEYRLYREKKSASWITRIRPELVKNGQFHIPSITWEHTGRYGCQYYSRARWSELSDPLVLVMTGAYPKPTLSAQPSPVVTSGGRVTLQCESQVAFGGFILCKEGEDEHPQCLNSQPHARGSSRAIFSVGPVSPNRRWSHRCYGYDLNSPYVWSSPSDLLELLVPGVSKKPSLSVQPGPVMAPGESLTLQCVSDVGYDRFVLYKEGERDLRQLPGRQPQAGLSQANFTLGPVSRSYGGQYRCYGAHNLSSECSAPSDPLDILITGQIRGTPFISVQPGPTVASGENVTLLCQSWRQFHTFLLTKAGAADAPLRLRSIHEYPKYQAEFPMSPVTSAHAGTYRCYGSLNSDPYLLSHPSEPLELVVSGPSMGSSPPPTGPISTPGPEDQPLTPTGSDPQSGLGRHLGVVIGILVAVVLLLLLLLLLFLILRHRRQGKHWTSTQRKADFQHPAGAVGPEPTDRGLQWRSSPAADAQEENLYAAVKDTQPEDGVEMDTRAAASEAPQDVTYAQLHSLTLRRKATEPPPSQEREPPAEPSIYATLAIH

[3] = target: T2, human LILRB2 expressed on CHOK1 cells …; assay: cell based RBA, flow cytometry: blocking of HLA-G binding to CHOK1-hLILRB2 cells

T1 sequence (Q8NHL6 24-650): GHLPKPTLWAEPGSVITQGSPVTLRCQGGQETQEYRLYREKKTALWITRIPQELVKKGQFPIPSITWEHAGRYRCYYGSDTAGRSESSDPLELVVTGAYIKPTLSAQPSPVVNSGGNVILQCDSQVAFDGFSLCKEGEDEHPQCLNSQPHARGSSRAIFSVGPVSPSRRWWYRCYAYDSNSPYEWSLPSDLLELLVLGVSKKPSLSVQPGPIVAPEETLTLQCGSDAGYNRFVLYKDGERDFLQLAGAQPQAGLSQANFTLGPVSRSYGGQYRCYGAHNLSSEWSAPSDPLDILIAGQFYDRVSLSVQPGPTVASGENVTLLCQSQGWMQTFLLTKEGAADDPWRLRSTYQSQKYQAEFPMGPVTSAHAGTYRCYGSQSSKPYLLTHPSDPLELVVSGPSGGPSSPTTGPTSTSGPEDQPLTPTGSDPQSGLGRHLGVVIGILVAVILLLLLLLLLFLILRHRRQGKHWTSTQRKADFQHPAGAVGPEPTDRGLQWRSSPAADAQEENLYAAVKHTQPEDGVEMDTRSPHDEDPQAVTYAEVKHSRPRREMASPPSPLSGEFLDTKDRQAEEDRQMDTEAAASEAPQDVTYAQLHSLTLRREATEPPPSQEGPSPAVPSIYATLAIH

B1: LK-RB2-42 (antibody, human IgG4 S228P, kappa, V domains shown)
VH: EFQLQQSGPELVKPGASVKISCKASGYSFTDYNMNWVKQSNGKSLDWIGIINPKYGTTAYNQKLRDKATLTVDQSSSTAYMQLNSLTSEDSAVYYCASLNWDEGFAYWGQGTLVTVSP
VL: DVLMTQTPLSLPVSLGDQASISCRSSQSIVHSNGNTYLEWYLQKPGQPPKLLIYKVSNRFSGVPERFSGSGSGTDFTLKINRVEAEDLGVYYCFQGSLVPPTFGGGTKLEIKR
Does B1 bind [1]?
Result: no binding

Does B1 bind [2]?
Result: no binding

B2: LK-RB2-2 (antibody, human IgG4 S228P, kappa, V domains shown)
VH: DVKLEESGEGLVKPGGSLKLSCAASGFTFSSYAMSWVRQTPEKRLEWVAYISSGGDYFHYADTVKGRFTISRDNARNTLYLQMSSLKSEDTAMYYCTREGAHYDSSYLAWFAHWGQGTLVTVSA
VL: DIQMTQSPASLSVSVGETVTITCRASENIYSNLAWYQQRQGKSPQLLVYAATNLADGVPSRFSGSGSGTQYSLKINSLQSEDFGSYYCQQFWDNPLTFGAGTKLELKR
Does B2 bind [1]?
Result: no binding

And the EC50 [2]?
The EC50 was 0.25 nM.

And the EC50 [3]?
The EC50 was 0.134 nM.

What about the “Top Inhibition” value [3] of the same binder?
Its value is 74.5%.

B3: LK-RB2-40 (antibody, human IgG4 S228P, kappa, V domains shown)
VH: DVQLQESGPGLVKPSQSLSLTCSVTGYSITSGYYWNWIRQFPGNKLEWMAYISYDGSNNYNPSLKNRISITRDTSKNQFFLKLNSVTTEDTATYYCAREEGTAQATLGYFDYWGQGTTLTVSS
VL: B2 VL with R39K, Q90H, N94T, L96F, A100S, L106I
Does B3 bind [1]?
Result: no binding

What about the EC50 [2] of the same binder?
Its EC50 is 0.53 nM.

What about the EC50 [3] of the same binder?
Its EC50 is 0.445 nM.

What about the “Top Inhibition” value [3] of the same binder?
The value was 79.4%.

B4: LK-RB2-21 (antibody, human IgG4 S228P, kappa, V domains shown)
VH: EVQLVESGGDLVKPGGSLKLSCAASGFTFSSYGMSWVRQTPDKRLEWVATISSGGSYTYYPDSLKGRFTISRDNAKSTLYLQMSSLKSEDTAKYYCARPYYDYIFYAIDYWGQGTSVTVSS
VL: DIQMNQSPSSLSASLGDTITITCHASQNINVWLSWYQQKPGNIPKLLIYKASNLHTGVPSRFSGSGSGTGFTLTISSLQPEDIATYYCQQGQSYPLTFGGGTKLEIKR
Does B4 bind [1]?
Result: no binding

And the EC50 [2]?
The EC50 was 2.28 nM.

And the EC50 [3]?
The EC50 was 1.61 nM.

What about the “Top Inhibition” value [3] of the same binder?
The value was 62.4%.

B5: LK-RB2-33 (antibody, human IgG4 S228P, kappa, V domains shown)
VH: EVQLQQSGVELVRPGALVKLSCKASGFNIKDYYMHWVKQRPEQGLEWIGWIDPEKGDTIYGPKFQGKASITADTSSNTAYLQLSSLTSEDTAVYYCSRGPNYGSSYAFAYWGQGTLVTVSA
VL: DVVMTQSHKFMSTSVGDRVTITCKASQDVSNAVAWYQQKPGQSPKLLIYSASYRYTGVPDRFTGSGSGTDFTFTISSMQAEDLAVYYCQQHYSLPWTFGGGTKLEIKR
Does B5 bind [1]?
Result: no binding

And the EC50 [2]?
Its EC50 is 0.91 nM.

And the EC50 [3]?
Its EC50 is 1.87 nM.

And the “Top Inhibition” value [3]?
Its value is 90%.

B6: LK-RB2-41 (antibody, human IgG4 S228P, kappa, V domains shown)
VH: EVQLQLSGPELVKPGASVKMSCKASGYTFTDYNMHWVKQSHGKSLEWIGYINPNNGGTTYNQKFKGKATLTVNKSSSTAYMELRSLTSEDSAVYYCARAPYYGSSYLLAYWGQGTLVTVSA
VL: B5 VL with V2I, T20S, N31T, M78V, V85I, L94I
Does B6 bind [1]?
Result: no binding

What about the EC50 [2] of the same binder?
Its EC50 is 0.37 nM.

What about the EC50 [3] of the same binder?
The EC50 was 0.157 nM.

And the “Top Inhibition” value [3]?
The value was 80.1%.

B7: LK-RB2-36 (antibody, human IgG4 S228P, kappa, V domains shown)
VH: QVQLQQSGAELVRPGASVKMSCKASGYTFTNYWIGWAKQRPGHGLEWIGDIYPGGTYTGYNEKFKGKATLTADKSSSTAYMQFSSLTSEDSAIYYCARRMDYDGYAMDYWGQGTSVTVSS
VL: DIVLTQSPASLSVTPGDSVSLSCRASQSISNNLHWYQQKSHESPRLLIKYASQSISGIPSRFSGSGSGTDFTLSINSVETEDFGMYFCQQSNSWPLTFGAGTKLELKR
Does B7 bind [1]?
Result: no binding

What about the EC50 [2] of the same binder?
The EC50 was 0.72 nM.

What about the EC50 [3] of the same binder?
Its EC50 is 0.506 nM.

And the “Top Inhibition” value [3]?
The value was 80.6%.

B8: LK-RB2-1 (antibody, human IgG4 S228P, kappa, V domains shown)
VH: QIQLVQSGPELKKPGETVKISCKASGYTFTTYGMSWVKQAPGKGLKWMGWINTYSGVSTYADDFKGRFAFSLETSASTAYLQINNLKNEDTATYFCARRYDYDGYAMDYWGQGTSVTVSS
VL: DIVMSQSPSSLAVSVGEKVTMSCKSSQSLLFSSNQKNYLAWYQQKPGQSPKLLIYWASTRESGVPDRFTGRGSGTDFTLTISSVKTEDLAVYYCQQYDTYPPTFGGGTKLEIKR
Does B8 bind [1]?
Result: no binding

What about the EC50 [2] of the same binder?
The EC50 was 0.24 nM.

What about the EC50 [3] of the same binder?
Its EC50 is 0.323 nM.

And the “Top Inhibition” value [3]?
Its value is 73.7%.

B9: LK-RB2-37 (antibody, human IgG4 S228P, kappa, V domains shown)
VH: B8 VH with L11V, S58P, A76V, A92S, Y100R
VL: B8 VL with F31Y, S33G, T59A, R71S, T86A, D98Y, P102F, G106S
Does B9 bind [1]?
Result: no binding

And the EC50 [2]?
Its EC50 is 0.34 nM.

What about the EC50 [3] of the same binder?
The EC50 was 0.268 nM.

What about the “Top Inhibition” value [3] of the same binder?
Its value is 77.3%.

B10: LK-RB2-22 (antibody, human IgG4 S228P, kappa, V domains shown)
VH: B8 VH with P14T, T53I, S58P, Y100A, A106Y, M107F, S115T, V116L
VL: NIVMTQTPKFLLVSAGDRVTITCRASQSVTNDVAWYQQRPGQSLKLLIYYASNRYTGVPDRFTGSGYGTDFTFTISTVQAEDLAVYFCQQGYSSPFTFGSGTKLEIKR
Which EC50 [1] does the source give for B10 here?
The EC50 was 45.3 nM.

What about the EC50 [2] of the same binder?
Its EC50 is 0.22 nM.

And the EC50 [3]?
Its EC50 is 0.112 nM.

What about the “Top Inhibition” value [3] of the same binder?
The value was 71.1%.

B11: LK-RB2-23 (antibody, human IgG4 S228P, kappa, V domains shown)
VH: B8 VH with T53I, S58P, Y100G, A106Y, M107F, S115T, V116L
VL: NIVLIQSAATLSVTPGDSVSLSCRASQSLSNGLHWYQQKSHESPRLLIKYGSQSISGIPSRFSGSGSGTDFTLSINSVETEDFGMYFCQQSDSWPHTFGSGTKLEIKR
With B11 as the binder, how does the EC50 [1] read?
The EC50 was 65.5 nM.

And the EC50 [2]?
The EC50 was 0.26 nM.

What about the EC50 [3] of the same binder?
Its EC50 is 0.198 nM.

And the “Top Inhibition” value [3]?
The value was 71.2%.

B12: LK-RB2-19 (antibody, human IgG4 S228P, kappa, V domains shown)
VH: QVQLQQPGAELVKPGASVKLSCKASGYTFTSYWMHWVKQRPGQGLEWIGMIHPNSGGTNYNEKFKSKATLTVDKSSSTAYMQFSSLTSEDSAVYYCARCTVVALYYALDYWGQGTSVTVSS
VL: QIVLSQSPAILSASPGEKVTMTCRATSRVSYIHWFQQKPGSSPKPWIYVTSNLASGVPARFSGSGSGTSYSLTISKLEAEDVATYYCQQWSTNPLTFGAGTKLELKR
With B12 as the binder, how does the EC50 [1] read?
The EC50 was 7.06 nM.

And the EC50 [2]?
The EC50 was 2.34 nM.

What about the EC50 [3] of the same binder?
Its EC50 is 50.3 nM.

What about the “Top Inhibition” value [3] of the same binder?
Its value is 18.1%.

B13: LK-RB2-3 (antibody, human IgG4 S228P, kappa, V domains shown)
VH: QLQLQQSDAELVKPGASVKISCKVSGYSFTDHTIHWMKQRPEQGLEWIGYIYPRDGSTKENEKFTGKATLTADKSSSTAYMQLTSLTSEDSAVYFCTGSGFDYWGQGTSLTVSS
VL: DIKMTQSPSSMYASLGERVTITCKASQDIKSYLSWFQQKPGKSPKTLIYRANRLVDGVPSRFSGSGSGQDYSLTINSLEYEDMEIYYCLQYDEFPYTFGGGTKLEIKR
Does B13 bind [1]?
Result: no binding

What about the EC50 [2] of the same binder?
The EC50 was 0.4 nM.

And the EC50 [3]?
The EC50 was 0.946 nM.

And the “Top Inhibition” value [3]?
The value was 73.2%.

B14: J19.h1 (antibody, human IgG4 S228P, kappa, V domains shown)
VH: QITLKESGPTLVKPTQTLTLTCTFSGFSLNTYAMGVSWIRQPPGKALEWLASIWWNGNKYNNPSLKSRLTVTKDTSKNQVVLTMTNMDPVDTATYYCAHSRIIRFTDYVMDAWGQGTLVTVSS
VL: DIQMTQSPSSLSTSVGDRVTITCRASEDIYNDLAWYQQKPGKAPKLLIYNANSLHTGVASRFSGSGSGTDFTFTISSLQPEDVATYFCQQYYDYPLTFGQGTKLEIKR
Does B14 bind [1]?
Result: no binding

What about the EC50 [2] of the same binder?
The EC50 was 0.15 nM.

What about the EC50 [3] of the same binder?
Its EC50 is 0.0889 nM.

What about the “Top Inhibition” value [3] of the same binder?
Its value is 68.7%.

B15: LK-RB2-4 (antibody, human IgG4 S228P, kappa, V domains shown)
VH: EVQLVESGGDLVKPGGSLKLSCAASGFTFSNYGMSWVRQTPDKRLEWVATISSGGSYTFYPDSVKGRFTISRDNAKNTLYLQMSSLKSEDTALYYCARDYYYGKTIEGYFDYWGQGTTLTVSS
VL: DIQMTQTTSSLSASLGDRVTISCRANQDISNYLNWYQQKPDGTVKLLIYYTSRLHSGVPSRFSGSGSGTDYSLTISDLEQEDIATYFCQQGNTLPWTFGGGTKLEIKR
What does the source list for B15?
binding result [1]: no binding; EC50 [2]: 1.61 nM; EC50 [3]: 1.71 nM; Top Inhibition [3]: 65.2%

B16: LK-RB2-14 (antibody, human IgG4 S228P, kappa, V domains shown)
VH: QVQLKQSGPGLVQPSQSLSITCTVSGFSLTSYGVHWVRQSPGKGLEWLGVIWRGGSTDYNAAFMSRLSITKDNSKSQVFFKMNSLQADDTAIYYCAKNEGDSTVVAWYFDVWGTGTTVTVSS
VL: DIQMTQTTSSLSASLGDRVTISCSASQGISNYLNWFQQKPDGTVKLLIYYTSSLHSGVPSRFSGSGSGTDYSLTISNLEPEDIATYYCQQYSKLPLTFGAGTKLELKR
Does B16 bind [1]?
Result: no binding

And the EC50 [2]?
Its EC50 is 0.29 nM.

What about the EC50 [3] of the same binder?
The EC50 was 0.231 nM.

And the “Top Inhibition” value [3]?
The value was 73.8%.

B17: LK-RB2-35 (antibody, human IgG4 S228P, kappa, V domains shown)
VH: EVQLQQSGPELVKPGASVKISCKASGYTFTDYNMHWVKQSHGKSLEWIGSIYPYNGGSDYNQKFKSKATLTVDNSSSTAYMELRSLTSEDSAVYYCASELTGLYAMDYWGQGTSVTVSS
VL: DIVMTQSPATLSVTPGDRVSLSCRASQSISDYLHWYQQKSHESPRLLIKYASQSISGIPSRFSGSGSGSDFTLSINSVEPEDVGVYYCQTGHSFPYTFGGGTKLEIKR
What does the source list for B17?
binding result [1]: no binding; EC50 [2]: 0.18 nM; EC50 [3]: 0.203 nM; Top Inhibition [3]: 88.4%

B18: LK-RB2-45 (antibody, human IgG4 S228P, kappa, V domains shown)
VH: QIQLVQSGPELKKPGETVKISCKASGYTFTTYGMSWVKQTPGKGLQWMGWINVYSGVPTYADDFKGRFAFSLEASASTAYLQINNLKNEDTASYFCARRGDYDGHYFDYWGQGTTLTVSS
VL: B17 VL with H34N, A51V, V83I, T90N, S93N, Y96L, I106L
Which results are given for B18?
EC50 [1]: 1.48 nM; EC50 [2]: 0.3 nM; EC50 [3]: 0.0673 nM; Top Inhibition [3]: 81.6%
